Assay results taken from patent US20130302270A1.

Columns and labels:
[1] = target: MUC16 (CA125), membrane-bound, on tumor cells (human) (UniProt Q8WXI7)
[2] = target: MUC16 (CA125), membrane-bound, on tumor cells (human) (UniProt Q8WXI7); assay: flow cytometry on MUC16-positive OVCAR3 cells, anti-FLAG detection

percent of cells positive for the FLAG epitope tag [2]: 100%
Substance: soluble mesothelin (Meso), secreted FLAG-tagged form of human mesothelin (from UniProt Q13421) (ligand)
reduction of Meso-TR3 killing of OVCAR3 cells by soluble mesothelin (% cell killing) [1]: 40
